Test results published in patent publication US20200277396A1.

How the values were obtained:
[1] = biological target: human CD83, cell surface, on lymphoma cells (human) (UniProt Q01151); test: flow cytometry, HB15a-FITC on KM-H2 cells, gate placed right of the grey isotype control histogram
[2] = biological target: human CD83, cell surface, on lymphoma cells (human) (UniProt Q01151); test: flow cytometry, HB15a-FITC on HDLM2 cells, gate placed right of the grey isotype control histogram
[3] = biological target: human CD83, cell surface, on lymphoma cells (human) (UniProt Q01151); test: flow cytometry, HB15a-FITC on L428 cells, gate placed right of the grey isotype control histogram
[4] = biological target: human CD83, cell surface, on lymphoma cells (human) (UniProt Q01151); test: flow cytometry, HB15e-FITC on KM-H2 cells, gate placed right of the grey isotype control histogram
[5] = biological target: human CD83, cell surface, on lymphoma cells (human) (UniProt Q01151); test: flow cytometry, HB15e-FITC on L428 cells, gate placed right of the grey isotype control histogram
[6] = biological target: human CD83, cell surface, on lymphoma cells (human) (UniProt Q01151); test: flow cytometry, HB15e-FITC on HDLM2 cells, gate placed right of the grey isotype control histogram

Sequence of UniProt Q01151 (Q01151 20-205): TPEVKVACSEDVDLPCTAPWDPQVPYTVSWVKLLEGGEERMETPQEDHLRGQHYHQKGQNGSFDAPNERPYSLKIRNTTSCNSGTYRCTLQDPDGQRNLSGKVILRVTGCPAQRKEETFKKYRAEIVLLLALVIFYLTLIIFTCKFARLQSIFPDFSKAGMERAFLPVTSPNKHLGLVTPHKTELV

Row | Substance | positive gate (percent of cells in the gate) [1] | positive gate (percent of cells in the gate) [2] | positive gate (percent of cells in the gate) [3] | positive gate (percent of cells in the gate) [4] | positive gate (percent of cells in the gate) [5] | positive gate (percent of cells in the gate) [6]
1 | HB15a, mouse anti-human CD83 monoclonal antibody (Beckman and Coulter) | 99.5 | 14.7 | 27.2 | – | – | –
2 | HB15e, mouse anti-human CD83 monoclonal antibody (BD Biosciences) | – | – | – | 99 | 60 | 32.5
